In US20260083855A1 (Hoffmann-La Roche, published 2026):

T1: IL-2R on human cells (activated CD4 T cells, PBMC subsets, NK92) (human, UniProt P14784 27-551; P31785 23-369)
T1 sequence (looked up) 1: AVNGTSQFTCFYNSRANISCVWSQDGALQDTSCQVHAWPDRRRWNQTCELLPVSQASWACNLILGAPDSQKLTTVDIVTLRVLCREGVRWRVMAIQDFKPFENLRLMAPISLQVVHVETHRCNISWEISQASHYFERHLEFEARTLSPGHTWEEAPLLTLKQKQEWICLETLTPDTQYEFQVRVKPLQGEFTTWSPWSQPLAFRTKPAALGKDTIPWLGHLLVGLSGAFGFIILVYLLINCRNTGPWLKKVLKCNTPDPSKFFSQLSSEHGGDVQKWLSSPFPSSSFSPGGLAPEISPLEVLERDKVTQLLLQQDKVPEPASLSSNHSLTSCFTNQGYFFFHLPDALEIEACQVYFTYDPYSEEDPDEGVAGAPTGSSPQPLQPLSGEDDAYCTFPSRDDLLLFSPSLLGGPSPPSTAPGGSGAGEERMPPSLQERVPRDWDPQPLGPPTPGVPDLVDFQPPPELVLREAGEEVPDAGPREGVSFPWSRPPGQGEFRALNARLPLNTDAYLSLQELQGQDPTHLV
T1 sequence (looked up) 2: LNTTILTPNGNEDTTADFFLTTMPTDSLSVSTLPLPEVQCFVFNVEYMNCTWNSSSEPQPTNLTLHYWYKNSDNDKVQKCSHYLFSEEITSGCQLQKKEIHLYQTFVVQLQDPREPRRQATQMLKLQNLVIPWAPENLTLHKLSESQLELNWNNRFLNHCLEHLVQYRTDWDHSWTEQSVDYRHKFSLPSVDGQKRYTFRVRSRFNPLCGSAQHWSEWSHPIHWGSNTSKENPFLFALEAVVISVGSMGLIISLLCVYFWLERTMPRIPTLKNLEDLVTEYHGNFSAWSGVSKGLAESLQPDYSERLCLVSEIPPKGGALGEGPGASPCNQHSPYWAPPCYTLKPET

T2: human LAG-3 on activated CD4 T cells (human, UniProt P18627 23-525)
T2 sequence (looked up): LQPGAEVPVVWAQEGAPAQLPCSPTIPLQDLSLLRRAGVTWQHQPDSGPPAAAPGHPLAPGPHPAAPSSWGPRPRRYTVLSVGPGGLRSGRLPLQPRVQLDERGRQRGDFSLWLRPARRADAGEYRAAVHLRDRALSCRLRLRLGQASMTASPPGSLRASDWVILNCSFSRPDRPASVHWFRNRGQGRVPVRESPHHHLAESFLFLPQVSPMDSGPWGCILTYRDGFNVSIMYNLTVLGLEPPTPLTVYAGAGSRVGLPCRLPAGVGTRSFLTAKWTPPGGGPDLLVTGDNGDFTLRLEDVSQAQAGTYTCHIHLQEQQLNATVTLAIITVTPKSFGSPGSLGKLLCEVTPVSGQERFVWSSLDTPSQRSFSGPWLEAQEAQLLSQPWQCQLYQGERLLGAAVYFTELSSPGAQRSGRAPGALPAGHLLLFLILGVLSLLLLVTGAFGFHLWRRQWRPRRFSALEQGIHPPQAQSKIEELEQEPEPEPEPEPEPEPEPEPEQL


Key:
Experiment in all cases: cell-based or functional assay
[1] = biological target: T3, human PD-1 on activated CD4 T cells (human, UniProt Q15116 25-288)
[2] = biological target: T3, human PD-1 on activated CD4 T cells; remark: listed apart in the source
[3] = biological target: T1, IL-2R on human cells (activated CD4 T …)
[4] = biological target: T2, human LAG-3 on activated CD4 T cells
[5] = biological target: T1, IL-2R on human cells (activated CD4 T …); remark: listed apart in the source
[6] = biological target: T3, human PD-1 on activated CD4 T cells; remark: listed apart in the source
[7] = biological target: T2, human LAG-3 on activated CD4 T cells; remark: listed apart in the source

T3 sequence (Q15116 25-288 limits assumed): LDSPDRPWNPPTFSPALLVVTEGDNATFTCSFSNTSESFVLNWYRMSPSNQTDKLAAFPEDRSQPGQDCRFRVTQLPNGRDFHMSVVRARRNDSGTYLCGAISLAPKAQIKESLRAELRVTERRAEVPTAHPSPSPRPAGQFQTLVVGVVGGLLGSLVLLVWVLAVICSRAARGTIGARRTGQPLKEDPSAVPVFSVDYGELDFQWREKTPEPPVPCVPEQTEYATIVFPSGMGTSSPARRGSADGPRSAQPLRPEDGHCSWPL

| Binder | Percentage of internalization (0.6 nM, activated CD4 T cells, 3 h at 37 C) [1] | Cis-delivery: fold increase in EC50, EC50 [PD1/LAG-3 bl.]/EC50 [PD1+/LAG-3+] [2] | Potency reduction vs PD1-IL2v on PD-1+ LAG-3+ T cells [3] | Cis-delivery: fold increase in EC50, EC50 [PD1/LAG-3 bl.]/EC50 [PD1+/LAG-3+] [4] | Percentage of internalization (0.6 nM, activated CD4 T cells, 3 h at 37 C) [5] | STAT5-P potency on PD-1+, LAG-3+ T cells against PD1-IL2v [6] | STAT5-P potency on PD-1+, LAG-3+ T cells against PD1-IL2v [7] |
| --- | --- | --- | --- | --- | --- | --- | --- |
| anti-PD1 IgG PG LALA (P1AA6888) (antibody, V domains shown) VH: EVQLLESGGGLVQPGGSLRLSCAASGFSFSSYTMSWVRQAPGKGLEWVATISGGGRDIYYPDSVKGRFTISRDNSKNTLYLQMNSLRAEDTAVYYCVLLTGRVYFALDSWGQGTLVTVSS VL: DIVMTQSPDSLAVSLGERATINCKASESVDTSDNSFIHWYQQKPGQSPKLLIYRSSTLESGVPDRFSGSGSGTDFTLTISSLQAEDVAVYYCQQNYDVPWTFGQGTKVEIKR | 13.6% |  |  |  |  |  |  |
| PD1-LAG3-IL2v (P1AF4801) (bispecific antibody, human IgG1, kappa, L234A L235A) light 1: EVQLLESGGGLVQPGGSLRLSCAASGFSFSSYTMSWVRQAPGKGLEWVATISGGGRDIYYPDSVKGRFTISRDNSKNTLYLQMNSLRAEDTAVYYCVLLTGRVYFALDSWGQGTLVTVSSASVAAPSVFIFPPSDEQLKSGTASVVCLLNNFYPREAKVQWKVDNALQSGNSQESVTEQDSKDSTYSLSSTLTLSKADYEKHKVYACEVTHQGLSSPVTKSFNRGEC light 2: not shown heavy 1: EVQLLESGGGLVQPGGSLRLSCAASGFIFDDYTMNWVRQAPGKGLEWVAVISWDGGGTYYTDSVKGRFTISRDDFKNTLYLQMNSLRAEDTAVYYCAKGLTDTTLYGSDYWGQGTLVTVSSASTKGPSVFPLAPSSKSTSGGTAALGCLVEDYFPEPVTVSWNSGALTSGVHTFPAVLQSSGLYSLSSVVTVPSSSLGTQTYICNVNHKPSNTKVDEKVEPKSCDKTHTCPPCPAPEAAGGPSVFLFPPKPKDTLMISRTPEVTCVVVDVSHEDPEVKFNWYVDGVEVHNAKTKPREEQYNSTYRVVSVLTVLHQDWLNGKEYKCKVSNKALGAPIEKTISKAKGQPREPQVCTLPPSRDELTKNQVSLSCAVKGFYPSDIAVEWESNGQPENNYKTTPPVLDSDGSFFLVSKLTVDKSRWQQGNVFSCSVMHEALHNHYTQKSLSLSPGK heavy 2: not shown |  | 1110 fold | 0.00787 fold | 1110 fold | 25.7% | 127 fold | 127 fold |
| PD1-LAG3-IL2v Q126T (P1AF7951) (bispecific antibody, human IgG1, kappa, L234A L235A) light 1: EVQLLESGGGLVQPGGSLRLSCAASGFSFSSYTMSWVRQAPGKGLEWVATISGGGRDIYYPDSVKGRFTISRDNSKNTLYLQMNSLRAEDTAVYYCVLLTGRVYFALDSWGQGTLVTVSSASVAAPSVFIFPPSDEQLKSGTASVVCLLNNFYPREAKVQWKVDNALQSGNSQESVTEQDSKDSTYSLSSTLTLSKADYEKHKVYACEVTHQGLSSPVTKSFNRGEC light 2: not shown heavy 1: EVQLLESGGGLVQPGGSLRLSCAASGFIFDDYTMNWVRQAPGKGLEWVAVISWDGGGTYYTDSVKGRFTISRDDFKNTLYLQMNSLRAEDTAVYYCAKGLTDTTLYGSDYWGQGTLVTVSSASTKGPSVFPLAPSSKSTSGGTAALGCLVEDYFPEPVTVSWNSGALTSGVHTFPAVLQSSGLYSLSSVVTVPSSSLGTQTYICNVNHKPSNTKVDEKVEPKSCDKTHTCPPCPAPEAAGGPSVFLFPPKPKDTLMISRTPEVTCVVVDVSHEDPEVKFNWYVDGVEVHNAKTKPREEQYNSTYRVVSVLTVLHQDWLNGKEYKCKVSNKALGAPIEKTISKAKGQPREPQVCTLPPSRDELTKNQVSLSCAVKGFYPSDIAVEWESNGQPENNYKTTPPVLDSDGSFFLVSKLTVDKSRWQQGNVFSCSVMHEALHNHYTQKSLSLSPGK heavy 2: not shown |  | 485 fold | 0.154 fold | 485 fold | 28.1% | 6.5 fold | 6.5 fold |
